In patent US11905559B2, “Materials and methods for controlling gene expression” (priority 2016, dated 2024):
“And” between values parts separate entries of the source, which are not always exact repeats. Identical values can stand only once.

Test: Constant-force (CF) single-molecule optical tweezers folding assay of guanine-aptamer RNAs in guanine buffer
Format: physicochemical
Conditions: for ΔG (0): zero force
From the text: The aptamer folding was monitored in real time using a constant-force (CF) assay. Equilibrium sampling techniques provide unprecedented insights into the rare events in the course of folding that are otherwise difficult to identify. The technique also allows for determination of the kinetic rates that has not been fully investigated in the guanine riboswitch. The relative dynamics of the helices have been investigated in ensemble and smFRET experiments, which indicated a non-dynamic P1-P3, upon which the P2 helix switches conformations. As shown in FIG. 6A (left panel), the RNA oscillated between the linear and the hairpin conformations (E↔D↔C) at 13 pN. The distances ΔXED=7.1±0.4 nm and ΔXDC=7.9±0.4 nm correspond to the folding of a 17±1 nt (P2) and 19±1 nt (P3) respectively (FIGS. 7A-B). The conversion of distances to nucleotides in CF assay are described in Table 2.
A miniaturized dual beam optical tweezers instrument was constructed with a sampling rate of 0.4, 4 and 40 kHz. Typically, in the tweezers set up (FIGS. 2A-E), a single-molecule of RNA is held between two beads via ˜550 nucleotide (nt) long Handles A and B. Preparation of Handles and the RNA is described in the section above. The streptavidin coated polystyrene bead (diameter 1.5-1.9 μm, Spherotech Inc.) is fixed on a micropipette via suction, and the anti-digoxigenin coated bead (diameter 4.0-4.9 μm, Spherotech Inc.) is held in the dual counter-propagating laser beam. The trap stiffness, K is measured at 0.04-0.06 pN/nm from the power spectrum analysis of the Brownian motion of the trapped bead. For power spectrum analysis, a polystyrene bead with diameter ˜4.6 μm is trapped in the counter-propagating laser beam in aqueous buffer with a fixed trap position. […] The average from 10 beads yielded K˜0.049±0.0008 pN/nm, and the stoke's drag coefficient, y=0.0364±0.0002 pN. s/μm. […] However, the autocorrelation time (τ0) defined as the τ1=1/2πfc as described by Zoldak et al., “Ultrafast folding kinetics and cooperativity of villin headpiece in single-molecule force spectroscopy”. Proc. Natl. Acad. Sci. U.S.A 110, 18156 (2013) sets the detection limit for the observable kinetics, which is different from the sampling frequencies. […] The ACF for the time series of force signal, Fi, with sampling rate δ and N data points, is calculated as,
In a constant-force (CF) experiment, the RNA is held at a preset force through feedback control. The preset force typically fluctuated around the mean with a standard deviation ±0.15 pN. In this mode, data is recorded from 4-40 kHz to capture the fast intermediates. The plots are shown as extension vs. time (as in FIG. 6A). In force-jump (FJ) assay, the force is suddenly jumped from one force to another, and then held constant thereafter, as shown in FIGS. 23A-B.
All FR, CF and FJ experiments were carried out at an ambient temperature, 25±0.5° C. The buffer in the microfluidics contained 10 mM Tris-HCl, pH 7.5 at 25° C., 250 mM NaCl, 3 mM MgCl2, and purine concentrations as indicated in wild-type aptamer. Unless stated otherwise, Mg^2+ concentration in the buffer was maintained at 3 mM in all experiments. The buffer in mutant m1 contained 5 mm Mg^2+ and 1 μM G, and in m3 contained 5 mM Mg^2+ and 200 nM Guanine. For the remaining m2, m4, m5 and m6 mutants, the buffer in single-molecule experiments was supplemented only with 3 mM Mg^2+ and 200 nM Guanine.
In the force-ramp experiment, the trap was moved away (pull cycle) from the micropipette at 200 nm/sec, which corresponded to a loading rate of 7-8 pN/sec. This movement of the trap exerted a tension at the ends of the tethered RNA aptamer. […] In the constant-force (CF) experiment, the RNA was held at a preset force (FIG. 6A). The loading rate in CF experiments was zero. The preset force typically fluctuated around the mean with standard deviation ±0.15 pN. […]

[1] = transition C′A (merged C′B and BA), F 6.1 pN, 5 mM Mg^2+, 1 uM G
[2] = transition DC (P3 folding), F 12.0 pN, 5 mM Mg^2+, 1 uM G
[3] = transition ED (P2 folding), F 13.5 pN, 5 mM Mg^2+, 1 uM G
[4] = transition BA (P1 folding), 3 mM Mg^2+, 200 nM G (rates at 8.5 pN)
[5] = transition BA (P1 folding), F 8.5 pN, 3 mM Mg^2+, 200 nM G
[6] = transition BA (P1 folding), F 8.5 pN, 3 mM Mg^2+, 200 nM G, no helix width adjustment
[7] = transition BA (P1 folding), from data at 8.5 pN, 3 mM Mg^2+, 200 nM G
[8] = transition C′B (L2-L3 folding), 3 mM Mg^2+, 200 nM G (rates at 8.5 pN)
[9] = transition C′B (L2-L3 folding), F 8.5 pN, 3 mM Mg^2+, 200 nM G
[10] = transition C′B (L2-L3 folding), from data at 8.5 pN, 3 mM Mg^2+, 200 nM G
[11] = transition DC (P3 folding), 3 mM Mg^2+, 200 nM G (rates at 13 pN)
[12] = transition DC (P3 folding), F 13 pN, 3 mM Mg^2+, 200 nM G
[13] = transition DC (P3 folding), from data at 13 pN, 3 mM Mg^2+, 200 nM G
[14] = transition ED (P2 folding), 3 mM Mg^2+, 200 nM G (rates at 13 pN)
[15] = transition ED (P2 folding), F 13 pN, 3 mM Mg^2+, 200 nM G
[16] = transition ED (P2 folding), from data at 13 pN, 3 mM Mg^2+, 200 nM G

Molecule | Equilibrium force F^eq [4] | Folding rate kf [5] | Unfolding rate ku [5] | Transition distance ΔX [6] | ΔG (0) [7] | Equilibrium force F^eq [8] | Folding rate kf [9] | Transition distance ΔX [9] | Unfolding rate ku [9] | ΔG (0) [10] | Equilibrium force F^eq [11] | Folding rate kf [12] | Transition distance ΔX [12] | Unfolding rate ku [12] | ΔG (0) [13] | Equilibrium force F^eq [14] | Folding rate kf [15] | Transition distance ΔX [15] | Unfolding rate ku [15] | ΔG (0) [16] | also measured
m1: m1 mutant guanine sensing aptamer RNA (SEQ ID NO: 2); G37 replaced with adenine in the L2 loop (nucleic acid, RNA, backbone and methylation of C not given here, G37 replaced with adenine in the L2 loop) CACUCAUAUAAUCGCGUGGAUAUAGCACGCAAGUUUCUACCGGGCACCGUAAAUGUCCGACUAUGGGUG |  |  |  |  |  |  |  |  |  |  |  |  |  |  |  |  |  |  |  |  | Equilibrium force F^eq (transition C′A (merged C′B and BA), 5 mM Mg^2+, 1 uM G (rates at 6.1 pN)): 6 pN and 6.0 ± 0.03 pN; Folding rate kf [1]: 0.6 ± 0.05 s⁻¹; Transition distance ΔX [1]: 12.4 ± 0.3 nm; Unfolding rate ku [1]: 0.6 ± 0.05 s⁻¹; ΔG (0) (transition C′A (merged C′B and BA), from data at 6.1 pN, 5 mM Mg^2+, 1 uM G): −12.4 ± 0.5 kBT; Equilibrium force F^eq (transition DC (P3 folding), 5 mM Mg^2+, 1 uM G (rates at 12.0 pN)): 12.2 ± 0.01 pN; Folding rate kf [2]: 20.7 ± 0.4 s⁻¹; Transition distance ΔX [2]: 7.7 ± 0.3 nm; Unfolding rate ku [2]: 15.2 ± 0.3 s⁻¹; ΔG (0) (transition DC (P3 folding), from data at 12.0 pN, 5 mM Mg^2+, 1 uM G): −15.9 ± 0.9 kBT; Equilibrium force F^eq (transition ED (P2 folding), 5 mM Mg^2+, 1 uM G (rates at 13.5 pN)): 13.4 ± 0.01 pN; Folding rate kf [3]: 11.8 ± 0.3 s⁻¹; Transition distance ΔX [3]: 7.2 ± 0.2 nm; Unfolding rate ku [3]: 15.1 ± 0.3 s⁻¹; ΔG (0) (transition ED (P2 folding), from data at 13.5 pN, 5 mM Mg^2+, 1 uM G): −16.6 ± 0.7 kBT
m6: m6 mutant guanine sensing aptamer RNA (SEQ ID NO: 7); U67A, shorter P3 hairpin and larger L3 loop (nucleic acid, RNA, backbone and methylation of C not given here, U67A, shorter P3 hairpin and larger L3 loop) CACUCAUAUAAUCGCGUGGAUAUGGCACGCAAGUUUCUACCGGGCACCGUAAAAGUCCGACUAUGGGUG | 8.3 ± 0.3 pN | 0.7 ± 0.02 s⁻¹ | 1.0 ± 0.1 s⁻¹ | 9.8 ± 0.2 nm | −13.9 ± 0.4 kBT | 7.2 ± 0.5 pN | 7.5 ± 0.2 s⁻¹ | 3.5 ± 0.2 nm | 23.9 ± 0.6 s⁻¹ | −6.1 ± 0.4 kBT | 10.6 ± 0.1 pN | 1.1 ± 0.03 s⁻¹ | 7.3 ± 0.1 nm | 115.4 ± 4.4 s⁻¹ | −11.1 kBT and −11.1 ± 0.3 kBT | 13.8 ± 0.03 pN | 23.9 ± 0.5 s⁻¹ | 7.1 ± 0.1 nm | 7.2 ± 0.2 s⁻¹ | −17.1 ± 0.3 kBT | L2-L3 kissing faster than wild-type (C′B folding rate): 8.33 times
m4: m4 mutant guanine sensing aptamer RNA (SEQ ID NO: 5); A59G/U67C in the P3 hairpin (nucleic acid, RNA, backbone and methylation of C not given here, A59G/U67C in the P3 hairpin) CACUCAUAUAAUCGCGUGGAUAUGGCACGCAAGUUUCUACCGGGCGCCGUAAACGUCCGACUAUGGGUG | 8.0 ± 0.1 pN | 0.33 ± 0.02 s⁻¹ | 1.0 ± 0.1 s⁻¹ | 9.5 ± 0.3 nm | −12.5 kBT and −12.5 ± 0.6 kBT | 7.6 ± 0.1 pN | 0.22 ± 0.02 s⁻¹ | 3.4 ± 0.1 nm | 0.56 ± 0.04 s⁻¹ | −6.1 ± 0.2 kBT | 13.0 ± 0.02 pN | 16.3 ± 0.3 s⁻¹ | 7.8 ± 0.2 nm | 16.5 ± 0.4 s⁻¹ | −17.3 ± 0.6 kBT | 13.9 ± 0.01 pN | 34.8 ± 1.1 s⁻¹ | 7.2 ± 0.2 nm | 8.8 ± 0.2 s⁻¹ | −17.6 ± 0.6 kBT | L2-L3 kissing rate reduced versus wild-type (C′B folding rate): 4.5 fold; Barrier ΔGkiss^‡ prior to the L2-L3 interactions (free energy landscape transformed to zero force): ~8.4 kBT; Increase of P3 stability ΔG(0) versus wild-type (transition DC): 1 kT
